Results from the DeepSol protein solubility set.

assay: soluble on expression in E. coli; label from the status in PepcDB or PDB records

Sequence	soluble on expression in E. coli
MGFFDDKQDFLEETFAKYPPEGRRAAIMPLLRRVQQEEGWIRPERIEEIARLVGTTPTEVMGVASFYSYYQFVPTGKYHLQVCATLSCKLAGAEELWDYLTETLGIGPGEVTPDGLFSVQKVECLGSCHTAPVIQVNDEPYVECVTRARLEALLAGLRAGKRLEEIELPGKCGHHVHEVEVLEHHHHHH	soluble
HLDAIQNFGAMDILCTDKTGTLTQDKIVLENHTDVSGKVCERVLHAAWLNSHYQTGLKNLLDTAVLEGVELDAARGLAERWQKVDEIPFDFERRRMSVVVKEDDAAHQLICKGALQEILNVSTQVRYNGDIVPLDDTMLRRIRRVTDTLNRQGLRVVAVATKYLPAREGDYQRADESDLILEGYIAFLDP	not soluble
MLSIKQLSYALAVSKTLHFRKAADLCHVRQSTLSTGVSELERQLGIKIFERDNKKVLVTPLGREVLDKASNIMLQLEDMAHLDHSCGEP	not soluble
MDRSERLIQLISEEGIDAFLIMNIENSARASSVYFSGFTGSFSIILISENTRLLITDSRYTVQAKQETDFEVREVKGGDFIDVLKKTVNDLKIKTIALEEERVSLSLFRRISSAFGDRKFIGIDDEVKQMRMVKDEGEIEKIKQAIEISERAFLETVQQIRAGMTEKEIAALLEYTMRKEGAEGVAFDTIVASGCRSALPHGKASDKVVERGDVIVIDFGATYENYCADITRVVSIGEPSDEVKEVHSIVLEAQERALKIAKAGVTGKLLDSVAREFIREKGYGEFFGHSLGHGIGLEVHEGPAISFRNDSPLPENVVFTVEPGIYLEGKFGIRIEEDVVLKEQGCEILTTLPRSIFVV	soluble
MIVDMRLRPPIPGFARSTLYQAGPKTSHPDFPVEPSVGQCSLPLLISEMDAAGVAVGVVPGRYSMEPFGIVSNDELATLFADHPGRFVGFMGLDLGWPMQRMLDEIDARVGTPGFRGVALEPTISADASFCGMNDKRLYPIYEACVKHGVPVSVTLSAVLQAFTKRPYEHSNPVQAYQVAIDFPGLDIVIAHAAYPWVMEMIGVCLTCPNVWLSPDLYLTNVFPGAQEYAKAAATYLPRRTLFGTGYPAKPFKPMIDAYAAWGWPQDVVAAILGGNAARLLRLADQLEHHHHHH	not soluble
MNGFARRTEQKKQAIKQAVLELLQKIRDPREVTIQEIAKQAHVSPVTIYNYFGSKENLIRETLLDDVVRQVDEYEAFLKQAGSFEEKVKHTIFQEVKLFKEGWTDVMLRWMQEDEEFRRSIELLNETRVLPLVVDMIREAQKKGEVDPRLSIEALLLYLNGWRELSEKIPASLYNERLVEDMVRLFFYGIKGETR	not soluble
MSLKANFYKNRVCLNVLAGSVDNAADIYDAAEGHVLVGVLSKNYPDVDTAVEDMKKYSEVTNNAVSVGLGAGDPNQSMMVSLISQHVQPQHINQVFTGVATSRALAGQDKSIVNGLISPTGTVGMVKISTGPLSSRSEDAIVPVETAIAMLKDMGGSSVKYFPMGGLETREEFACVAKACADKDFWLEPTGGIDLENYEEIMQIALDAGVSKIIPHIYSSIIDKATGNTRPEDVKTLLDMTKKLLN	soluble
MSLKLSNERAEWQAQMKKSVISEERQRLARDLHDAVSQQLFAISMMTSAVLEHVKDADDKTVKRIRMVEHMAGEAQNEMRALLLHLRPVTLEGKGLKEGLTELLDEFRKKQPIDIEWDIQDTAISKGVEDHLFRIVQEALSNVFRHSKASKVTVILGIKNSQLRLKVIDNGKGFKMDQVKASSYGLNSMKERASEIGGVAEVISVEGKGTQIEVKVPIFPEEKGENERDSSIIDEGHHHHHH	soluble
MEKKKLTTAAGAPVVDNNNVITAGPRGPMLLQDVWFLEKLAHFDREVIPERRMFAKGSGAFGTFTVTHDITKYTRAKIFSEVGKKTEMFARFSTVAGERGAADAERDIRGFALKFYTEEGNWDMVGNNTPVFYLRDPLKFPDLNHIVKRDPRTNMRNMAYKWDFFSHLPESLHQLTIDMSDRGLPLSYRFVHGFGSHTYSFINKDNERFWVKFHFRCQQGIKNLMDDEAEALVGKDRESSQRDLFEAIERGDYPRWKLQIQIMPEKEASTVPYNPFDLTKVWPHADYPLMDVGYFELNRNPDNYFSDVEQAAFSPANIVPGISFSPDKMLQGRLFSYGDAHRYRLGVNHHQIPVNAPKCPFHNYHRDGAMRVDGNSGNGITYEPNSGGVFQEQPDFKEPPLSIEGAADHWNHREDEDYFSQPRALYELLSDDEHQRMFARIAGELSQASKETQQRQIDLFTKVHPEYGAGVEKAIKVLEGKDAK	soluble
MGSDKIHHHHHHMENKVKTVAVFSGYYLPFLGGIERYTDKMTADLVKRGYRVVIVTTNHGDLPIIDEDKGRKIYRLPTKNIVKQRYPIINKNREYNTLMKYVSDENIDFVICNTRFQLTTLEGLSFAKNHHLPSIVLDHGSSHFSVNNRFLDFFGAIYEHLLTARVKHYRPDFYAVSKRSVEWLKHFNIEAKGVIYNSVSESLGSDFAGTAYLEKSADDIFITYAGRIIKEKGIELLLEAFSMSQYSENVYLQIAGDGPELAHLKEKYQSKQINFLGKLNFEQTMSLMAQTDIFVYPSMYPEGLPTSILEAGLLSSAIIATDRGGTVEVIDSPELGIIMEENTQSLHESLDLLVKDKALREKLQQNIAKRIKEHFTWEKTVEKLDYIIQKN	not soluble
NALRRDPNLPVHIRGWLHKQDSSGLRLWKRRWFVLSGHCLFYYKDSREESVLGSVLLPSYNIRPDGPGAPRGRRFTFTAEHPGMRTYVLAADTLEDLRGWLRALGRASRAEGDDYGQPRSPAR	soluble
MMDFEDFGNPLAGKPLSQADKAAAVLLAMGKGVAGKLLKFFTQHELQMIISSAQTLRVIPPDELAQIVAEFEDLFTEGTGLMDNAKAIESILEEGLTPEEVDSLLGRRAAFQAYEASIWDRLQEAEPEFVGKFLLREHPQTIAYILSMLPSSFGAKVLLTIPEEQRADIMNRTVNMKEVSPTAAQIIEKRVVNLINEIEAERNAGGSTKVADLMNELDKPQVDTLLSSLETLSKEAANKVKPKIFLFDDLMFMPQRSRVLLLNDVSADVLTMALRGATVEIKECVLSSISPRQRRMIESDLAVPQASLNTREVAIARRAVAQEAIRLANSGQIQLKDVAAEEQSAAA	not soluble
MGSDKIHHHHHHMSDVVLNKGIVIEQLRYGHGNDVLVVDAWQLGTAEHWAIFATDSYSGSLLGRILSGDITPDQGIITGLPQRIGWVSLGQQQALLARELAKDELDYGSSVELLVLECCQGAQQLGPLLQQVGLEHLRLRGFRQLSTGETRRVMLARALAMQPQLLILDDPYAGLDCEHQESLSQLLDEVAKNCQLLLITSRQEELPECISHVALFNTEMLQSGQSIHKLSLPMSIKEWHSHPIMAQLHALSAQRSDELLALLVRQRHKVEDFDPLVEIKNGKVEYVSGLIFSGVNWRIEAGQHWQVRGPNGCGKSTLLGLILGDHPQCYSNDITLFGRPRGSGESIWEIKQRIGIVSSALHLQYRVSCSALDVLLSGFFDSIGLYHKPTKLQHDLAKEWLAILHMSELAHISFKQLEYGQQRLLLIGRALIKKPLLLILDEPYQGLDFINRTLVMRTLEMIAHHHLSQLLYVSHHREDALPSIKHFIDFVRQGDGYSVQVSHL	not soluble
GETASSLWIDAAVAVSVPFQLNSVADRMNQGFSRLYQAYLLSRLRRIFLKKLNHLNNSPFSKSDLLSLKTFWDFDERITAPINGFKNAHEYYQKASSRQYLKNITTPTLIIHAQDDPFMTPDAIPASKELSSQTTLELSEYGGHVGFIAGTGKNSSQPVYWLEQRIPEFLLEYLS	not soluble
MSASYQTIEHDVPQSYRDKILKWNGWGYSDSQFAINKDGHVTFTGDKYEISGKVMPHFRPWFENYLGIDLGFVSPAQKLSDVIIDAPVENEDIIEFLQENKISFSNEARIRLMRGHGHTVHDMINLREGKIPRLPDIVVWPKSEHEIVKIIEGAMSHNCAIIPIGGGTSVTNALDTPETEKRAVISMDMALLDKILWIDRENLTCRAQAGIVGQSLERQLNKKGFTCGHEPDSIEFSTLGGWVSTRASGMKKNKYGNIEDLVVHLNFVCPKGIIQKQCQVPRMSSGPDIHQIILGSEGTLGVVSEVTIKIFPIPEVKRFGSFVFPNFESGVNFFREVAIQRCQPASLRLMDNDQFVMGQALKVASDSWWADLKSSVSKMYITSWKGFKVDEICAATCVYEGNREEVDQHEERLNKLAEQFHGVVGGAENGQYGYRLTFAIAYLRDLGMNHGVLGESFETSVPWDKVLSLCRNVKELMKREAKAQGVTHPVLANCRVTQVYDAGACVYFYFGFNARGLKNGLEVYDRIETAARDEIIACGGSISHHHGVGKIRKQWMLTTNGAVGIALLKAIKSELDPANIFASANLIDIIGSPHCKL	not soluble
MRLEDEIKQVKAFKNDYNKAVVNLIFTYNWLESSSKAFFKDFDLTSQQFNILRILKGQHPNPSTINLLRDRMLDKMCDASRLVERLRIKGLVERSQASSDKRAVDIFITKKGEELLAKIEVEFPAFEEKLHTLSAEEIVVFNNLLDKLRG	not soluble
DYKYVLKGHEDIRQDSLVMQLFGLVNTLLKNDSECFKRHLDIQQYPAIPLSPKSGLLGWVPNSDTFHVLIREHRDAKKIPLNIEHWVMLQMAPDYENLTLLQKIEVFTYALDNTKGQDLYKILWLKSRSSETWLERRTTYTRSLAVMSMTGYILGLGDRHPSNLMLDRITGKVIHIDFGDCFEAAILREKYPEKVPFRLTRMLTYAMEVSGIEGSFRITCENVMRVLRDNKESLMAILEAFALDPLIHWGFD	not soluble
MKFNSMFSPIDIGPMKVPNRFVVSPMCNNYANTDGTLSDTSLAYYKERALGGFGLITFEATVVDVRAKGGANKACLYSDHQIASFKRVIDVCHDAGAKISVQLQHAGPEGNSKVSGYPLRAASAIASAAGRNTPEAISREELYELIELYGEAALRAKKAGADAVEVHCAHGYLVSSFLSARTNKRVDEFGGCFENRMRLPRLIIESIRKRVGHSIAILCRINSTDGVDGGLSVQDSATVAAYLEDCGLDGLHVSRSVHIRDEYMWAPTVLHAGFSSDLVTQIKRAVSIPVITVGRFTEPHYAELMVREGRADLVAFGRQSLADPETPNKAAAGKLDELLPCIACLQGCVANMYAGKPITCLVNPLLGRESEAYLPKTPSKKVVVVGGGVGGLYAGWMAGSRGHDVTVYEASDMIGGQMRLAAYPPGKGDLTNMVRSYIKKCEQFDVEIKTNTPVTLELIQEVAPDAVIIATGATPLVLPIPGIEDAGLIHAVDLLDGKEKCGQKVLVVGGGMVGSETAAFLGEAGHDVTVVELRDEVGADVISEHRKFLMHDFDEYKIKSVTNAKVTSFFEDGVTYSLADNKEQRIDGFDSVVLAMGSRAYNPLEEAIKAIVPETYVIGDAVRARRALDATKEALDAVLQL	not soluble
FFAAITAAERRCWIASPYFVPDLDILAALKHAALRGVDVRLLVPDEADHTIPWLAAFAYFDEVREAGVRVMRYTDGFLHQKVFVVDDTIAAVGTTNLDNRSFRLNFEAMALFFDATVAGQVTAMLEHDFASSTELTRSLAAQPVFIRYGAPLARLFAPIL	not soluble
MSLWRLKFFLDFEKEEKWLEEMAWKGYQLESTTFGYTFRYTEPEDATIRIDHRVFSRKSEFINYCTLFEDSGWEHIAGNRWSGTYYFKKVNEESEDDIFSDPMSRAGKYKRLSKTEGHHHHHH	not soluble
